Drawing on patent US20060210570A1, this text covers IC50 (nM), inhibition of prostasin amidolytic activity towards S2765 for three substances.

For this experiment, the target named is prostasin (recombinant human, soluble, active two-chain form purified from conditioned medium of CHO cells transfected with full-length prostasin) (human) (UniProt Q16651). The experiment in a line: cell-based or functional assay.
For the substance “sHAI-1 (obtained from R & D Systems, Inc.) (from UniProt O43278 36-449)”, the IC50 (nM), inhibition of prostasin amidolytic activity towards S2765 was determined as 109 nM.

For the substance “Alzheimer's amyloid β protein precursor inhibitor (APPI) (from UniProt P05067 287-344)”, the IC50 (nM), inhibition of prostasin amidolytic activity towards S2765 is more than 1000 nM.

As for “sHAI-1B wildtype (soluble hepatocyte growth factor activator inhibitor-1B, entire extracellular domain) (from UniProt O43278 36-465)”, the IC50 (nM), inhibition of prostasin amidolytic activity towards S2765 was 66 nM.
